# Biological target: soluble head domain of CDV-H (canine distemper virus hemagglutinin), Kyoto Biken vaccine strain, mad (canine distemper virus (Kyoto Biken vaccine strain))
# Test: SEC + other: non-reducing SDS-PAGE
substance,measurement,value
"soluble head domain of CDV-H (canine distemper virus hemagglutinin), Kyoto Biken vaccine strain, mad (domain or fragment)",stoichiometry N,2

# From PMC11268888
